Measurements taken from PMC10746542 (Nature chemical biology, 2023).

Tests used:
VH27.2-Fc Y102A = experiment: BLI; biotinylated ENPP1-Fc antigen loaded on streptavidin biosensors, blocked with 5 uM biotin; binder in solution, 600 s association, 900 s dissociation; TBS, 0.02% TWEEN-20, 0.2% BSA, 200 uM zinc chloride, 2 mM calcium chloride, 75 mM sodium chloride; 1:1 monovalent binding model; conditions: both partners purified
VH27.2-Fc W104F = experiment: as above; conditions: both partners purified
VH27/T75I/A89V-Fc = experiment: as above; conditions: both partners purified
[1] = biological target: bi-paratopic VH27.2/VH31 inhibitor (tetravalent Fc); experiment: flow cytometry on cells; MDA-MB-231 cells stained with a titration of binder, 1 hr at 4°C in PBS with 3% BSA; ProtA-647 secondary; EC50 from median fluorescence intensity, sigmoidal 4PL fit; conditions: one partner purified

Binder	Kd (VH27.2-Fc Y102A) [µM]	Kd (VH27.2-Fc W104F) [µM]	Kd (VH27/T75I/A89V-Fc) [µM]	binding result [1]
T256A ENPP1-Fc (human ENPP1 ectodomain, ΔSMB, T256A, C-terminal Fc fusion with AviTag, biotinylated) (Fc fusion, biotin on the AviTag) GEKSWVEEPCESINEPQCPAGFETPPTLLFSLDGFRAEYLHTWGGLLPVISKLKKCGTYTKNMRPVYPTKAFPNHYSIVTGLYPESHGIIDNKMYDPKMNASFSLKSKEKFNPEWYKGEPIWVTAKYQGLKSGTFFWPGSDVEINGIFPDIYKMYNGSVPFEERILAVLQWLQLPKDERPHFYTLYLEEPDSSGHSYGPVSSEVIKALQRVDGMVGMLMDGLKELNLHRCLNLILISDHGMEQGSCKKYIYLNKYLGDVKNIKVIYGPAARLRPSDVPDKYYSFNYEGIARNLSCREPNQHFKPYLKHFLPKRLHFAKSDRIEPLTFYLDPQWQLALNPSERKYCGSGFHGSDNVFSNMQALFVGYGPGFKHGIEADTFENIEVYNLMCDLLNLTPAPNNGTHGSLNHLLKNPVYTPKHPKEVHPLVQCPFTRNPRDNLGCSCNPSILPIEDFQTQFNLTVAEEKIIKHETLPYGRPRVLQKENTICLLSQHQFMSGYSQDILMPLWTSYTVDRNDSFSTEDFSNCLYQDFRIPLSPVHKCSFYKNNTKVSYGFLSPPQLNKNSSGIYSEALLTTNIVPMYQSFQVIWRYFHDTLLRKYAEERNGVNVVSGPVFDFDYDGRCDSLENLRQKRRVIRNQEILIPTHFFIVLTSCKDTSQTPLHCENLDTLAFILPHRTDNSESCVHGKHDSSWVEELLMLHRARITDVEHITGLSFYQQRKEPVSDILKLKTHLPTFSQED	0.111	0.0142	0.0007	
native ENPP1 on the cell membrane (natural protein, UniProt P22413 1-925, looked up) MERDGCAGGGSRGGEGGRAPREGPAGNGRDRGRSHAAEAPGDPQAAASLLAPMDVGEEPLEKAARARTAKDPNTYKVLSLVLSVCVLTTILGCIFGLKPSCAKEVKSCKGRCFERTFGNCRCDAACVELGNCCLDYQETCIEPEHIWTCNKFRCGEKRLTRSLCACSDDCKDKGDCCINYSSVCQGEKSWVEEPCESINEPQCPAGFETPPTLLFSLDGFRAEYLHTWGGLLPVISKLKKCGTYTKNMRPVYPTKTFPNHYSIVTGLYPESHGIIDNKMYDPKMNASFSLKSKEKFNPEWYKGEPIWVTAKYQGLKSGTFFWPGSDVEINGIFPDIYKMYNGSVPFEERILAVLQWLQLPKDERPHFYTLYLEEPDSSGHSYGPVSSEVIKALQRVDGMVGMLMDGLKELNLHRCLNLILISDHGMEQGSCKKYIYLNKYLGDVKNIKVIYGPAARLRPSDVPDKYYSFNYEGIARNLSCREPNQHFKPYLKHFLPKRLHFAKSDRIEPLTFYLDPQWQLALNPSERKYCGSGFHGSDNVFSNMQALFVGYGPGFKHGIEADTFENIEVYNLMCDLLNLTPAPNNGTHGSLNHLLKNPVYTPKHPKEVHPLVQCPFTRNPRDNLGCSCNPSILPIEDFQTQFNLTVAEEKIIKHETLPYGRPRVLQKENTICLLSQHQFMSGYSQDILMPLWTSYTVDRNDSFSTEDFSNCLYQDFRIPLSPVHKCSFYKNNTKVSYGFLSPPQLNKNSSGIYSEALLTTNIVPMYQSFQVIWRYFHDTLLRKYAEERNGVNVVSGPVFDFDYDGRCDSLENLRQKRRVIRNQEILIPTHFFIVLTSCKDTSQTPLHCENLDTLAFILPHRTDNSESCVHGKHDSSWVEELLMLHRARITDVEHITGLSFYQQRKEPVSDILKLKTHLPTFSQED				binds
